Test results taken from patent US9035028B2, “Temperature sensitive conjugate compositions” (Emory University, priority 2010, dated 2015).

Columns and labels:
[1] = biological target: T1, GPIIb/IIIa on human platelets (Homo sapiens, UniProt P05106+P08514); assay: Flow cytometry: binding to human platelets; settings: for binding to human activated platelets: 20 μM ADP
T1 construct: endogenous in cells
Description: (§1) Human blood was collected by venipuncture with a 21-gauge butterfly needle from healthy volunteers and anticoagulated with citric acid. Platelet-rich plasma (PRP) was obtained by centrifugation (GS-6R centrifuge, Beckman Coulter) at 100×g at room temperature for 10 min.
(§2) Human PRP was diluted 1/50 in modified Tyrode's buffer containing 2 mM MgCl2 and 2 mM CaCl2. Platelets were either activated by addition of 20 μM ADP, or non activated, followed by the incubation with 15 and 50 μg/mL EMP-scFv fusion protein or EMP at 22° C., 32° C. and at 37° C. for 15 min. Mouse platelets were either pre-activated for 10 min by addition of 0.1 U/mL thrombin (Enzyme Research Laboratories), or non activated, before the incubation with 15 and 50 μg/mL of EMP-scFv fusion protein at 22° C., 32° C. or 37° C. for 15 min. In both, human and mouse samples, EMP-scFv was detected via 15 min in-dark incubation with secondary antibody (Penta-His Alexa Fluor 488, Qiagen) directed against the His(6)-tag of the single-chain antibody.
In re-warming experiments, activated and non-activated diluted human PRP was incubated with 15 and 50 μg/mL of EMP-scFv for 15 minutes at 22° C., followed by a 15-min in dark incubation with secondary Penta-His Alexa Fluor 488 antibody. Half of the reaction was then fixed with 1× Cell FIX, while the other half was incubated at 37° C. for either 15 or 30 minutes, before being fixed and measured in FACS.

[2] = biological target: T2, GPIIb/IIIa on mouse platelets (Mus musculus, UniProt O54890+Q9QUM0); assay: Flow cytometry: binding to mouse platelets
T2 construct: endogenous in cells
T2 sequence (Q9QUM0 32-1033): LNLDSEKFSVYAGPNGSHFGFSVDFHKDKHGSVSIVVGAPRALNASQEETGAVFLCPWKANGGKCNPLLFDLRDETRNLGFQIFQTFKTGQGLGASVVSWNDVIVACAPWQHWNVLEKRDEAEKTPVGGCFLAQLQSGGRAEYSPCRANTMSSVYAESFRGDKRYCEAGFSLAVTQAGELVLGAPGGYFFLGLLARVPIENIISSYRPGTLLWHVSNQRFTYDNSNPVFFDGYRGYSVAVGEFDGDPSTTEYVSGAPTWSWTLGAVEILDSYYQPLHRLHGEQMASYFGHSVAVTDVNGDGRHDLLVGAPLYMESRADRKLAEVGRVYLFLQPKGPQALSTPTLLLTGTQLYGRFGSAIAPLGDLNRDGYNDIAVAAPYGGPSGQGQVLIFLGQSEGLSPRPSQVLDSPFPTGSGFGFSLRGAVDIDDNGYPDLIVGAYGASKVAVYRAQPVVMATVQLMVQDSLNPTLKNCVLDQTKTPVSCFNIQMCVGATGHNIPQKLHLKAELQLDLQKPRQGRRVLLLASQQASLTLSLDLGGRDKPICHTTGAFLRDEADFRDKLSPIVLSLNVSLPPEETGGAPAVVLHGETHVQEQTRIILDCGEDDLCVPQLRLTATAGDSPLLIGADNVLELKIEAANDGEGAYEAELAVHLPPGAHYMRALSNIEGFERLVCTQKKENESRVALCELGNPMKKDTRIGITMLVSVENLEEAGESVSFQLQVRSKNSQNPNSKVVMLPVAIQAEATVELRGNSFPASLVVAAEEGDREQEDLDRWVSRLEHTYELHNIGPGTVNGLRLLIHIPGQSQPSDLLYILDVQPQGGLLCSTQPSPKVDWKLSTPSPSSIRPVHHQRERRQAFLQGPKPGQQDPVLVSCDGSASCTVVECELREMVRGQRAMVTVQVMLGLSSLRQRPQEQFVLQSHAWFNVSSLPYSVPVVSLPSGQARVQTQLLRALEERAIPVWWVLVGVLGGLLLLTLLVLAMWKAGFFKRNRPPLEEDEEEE
T2 sequence (O54890 26-787): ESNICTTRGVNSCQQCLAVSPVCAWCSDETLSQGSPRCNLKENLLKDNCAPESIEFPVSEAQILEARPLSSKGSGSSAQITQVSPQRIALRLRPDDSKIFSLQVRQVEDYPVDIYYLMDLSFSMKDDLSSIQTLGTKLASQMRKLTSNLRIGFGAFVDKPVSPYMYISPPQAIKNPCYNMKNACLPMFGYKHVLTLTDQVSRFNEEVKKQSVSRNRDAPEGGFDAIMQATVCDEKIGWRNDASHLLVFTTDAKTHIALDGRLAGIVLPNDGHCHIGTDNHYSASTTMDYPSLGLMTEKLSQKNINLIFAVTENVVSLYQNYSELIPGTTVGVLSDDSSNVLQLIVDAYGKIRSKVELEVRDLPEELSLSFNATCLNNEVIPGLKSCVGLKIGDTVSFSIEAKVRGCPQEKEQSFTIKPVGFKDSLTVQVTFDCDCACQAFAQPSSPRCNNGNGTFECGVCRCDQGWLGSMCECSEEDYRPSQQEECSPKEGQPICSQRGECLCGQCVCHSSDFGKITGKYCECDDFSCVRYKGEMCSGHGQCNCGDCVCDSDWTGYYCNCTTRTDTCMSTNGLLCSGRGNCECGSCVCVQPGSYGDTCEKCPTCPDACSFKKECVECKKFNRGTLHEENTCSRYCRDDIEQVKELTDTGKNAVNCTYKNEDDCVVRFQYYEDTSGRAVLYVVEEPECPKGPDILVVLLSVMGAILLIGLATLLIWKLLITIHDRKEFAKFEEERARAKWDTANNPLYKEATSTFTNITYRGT
Description: (§3) Mouse blood was collected by intracardiac puncture with a 27-gauge needle from C57BL/6 mice and anticoagulated with non-fractionated heparin (20 U/mL). A volume of 50 μl was washed with 1 mL modified Tyrode's buffer (150 mM NaCl, 2.5 mM KCl, 1.2 mM NaHCO3, 0.1% BSA, 0.1% Glucose) and centrifuged at 1200×g for 6 min. The supernatant was discarded and the pellet was resuspended in 1 mL modified Tyrode's buffer containing 2 mM MgCl2 and 2 mM CaCl2.
as §2

[3] = biological target: T1, GPIIb/IIIa on human platelets; assay: Flow cytometry: inhibition of fibrinogen binding to human platelets; assay type: cell-based
Description: as §1, §2
(§4) Fibrinogen binding to human activated platelets in the presence of EMP-scFv was determined with a polyclonal rabbit anti-human fibrinogen FITC-labelled antibody (DakoCytomation), while the effects of EMP-scFv on fibrinogen binding to mouse platelets were determined using FITC-conjugated rabbit anti-fibrinogen polyclonal antibody (Cemfret). Fluorescence detection was performed as described above. Samples were measured in a FACSCalibur® flow cytometer (Becton Dickinson), after fixation with 1× CellFIX® (Becton Dickinson).

[4] = biological target: T2, GPIIb/IIIa on mouse platelets; assay: Flow cytometry: inhibition of fibrinogen binding to mouse platelets; assay type: cell-based
Description: as §3, §2, §4

human platelets [5] = assay: Flow cytometry: platelet activation (PAC-1 binding, P-selectin expression); assay type: cell-based; settings: human diluted PRP, 22° C.
Description: Effects of EMP-scFv on platelet activation were addressed by incubating human diluted PRP with 15 and 50 μg/mL of EMP-scFv at 22° C. for 15 minutes, followed by the addition of either PAC-1 or CD62P antibodies and in-dark incubation for 15 minutes. The reactions were fixed and levels of PAC-1 binding and P-Selectin expression analysed in FACS.

human platelets [6] = assay: 96-well plate light transmission aggregometry, ADP-driven platelet aggregation; assay type: cell-based; settings: 22° C.
Description: Light transmission aggregometry was performed using a Biorad Benchmark plate reader. After incubation of human PRP with EMP-scFv (15 μg/mL), vehicle (PBS) or the GPIIb/IIIa blocker abciximab (10 μg/mL) (Reopro®, Eli Lilly, Indianapolis, U.S.A.) for 10 minutes at different temperatures, the aggregation was induced by the addition of 2 or 20 μM ADP with vigorous stirring in a 96-well plate. The absorbance was determined at 595 nm every 15 seconds for 16 minutes between vigorous shaking at 22° C. and 37° C.

[7] = system: activated human platelets; assay: Microscopic analysis of platelet aggregates; assay type: cell-based; settings: 22° C.
Description: For the microscopic analysis of platelet aggregates at different temperatures, non-diluted human PRP was placed onto a glass slide and ADP was added to a final concentration of 20 μM, in the presence and absence of EMP-scFv (50 μg/mL). Abciximab was used as a positive control at a concentration of 10 μg/mL. The experiments were conducted at 22° C. and 37° C. Phase contrast microscopy images were taken using an Olympus CKX41 microscope.

B1: EMP-scFv: fusion of elastin mimetic polypeptide (EMP) and activation-specific GPIIb/IIIa-blocking single-chain antibody; 704 amino acids, approximately 70 kDa (protein)
chain: MAVPAVGIPAVGIPAVGIPAVGIPAVGIPAVGIPAVGIPAVGIPAVGIPAVGIPAVGIPAVGIPAVGIPAVGIPAVGIPAVGIPAVGIPAVGIPAVGIPAVGIPAVGIPAVGIPAVGIPAVGIPAVGIPAVGIPAVGIPAVGIPAVGIPAVGIPAVGIPAVGIPAVGIPAVGIPAVGIPAVGIPAVGIPAVGIPAVGIPAVGIPAVGIPAVGIPAVGIPAVGIPAVGIPAVGIPAVGIPAVGIPAVGIPAVGIPAVGIPAVGIPAVGIPAVGIPAVGIPAVGIPAVGIPAVGIPAVGIPAVGIPAVGIPAVGIPAVGIPAVGIPAVGIPAVGIPAVGIPAVGIPAVGIPAVGIPAVGIPAVGIPAVGIPAVGIPAVGIPAVGIPAVGIPAVGIPAVGIPAVGIPGGGGSMMAEVQLVESGGGLVQPGGSLRLSCAASGFMFSRYAMSWVRQAPGKGPEWVSGISGSGGSTYYADSVKGRFTVSRDNSKNTLYLQMNSLRAEDTAVYYCARIFTHRSRGDVPDQTSFDYWGQGTLVTVSSGSASAPKLEEGEFSEARVSSELTQDPAVSVALGQTVRITCQGDSLRNFYASWYQQKPGQAPTLVIYGLSKRPSGIPDRFSASSSGNTASLTITGAQAEDEADYYCLLYYGGGQQGVFGGGTKLTVLRQPKAAPSVTLFPPSSAAAGSEQKLISEEDLNSHHHHHH
[1]; 22° C.
  binding to human activated platelets: significantly higher level
[1]; 37° C.
  binding to human activated platelets: totally abolished
[1]; bound to activated platelets at 22° C., then temperature increased to 37° C.
  dissociation from GPIIb/IIIa upon re-warming: did not dissociate
[1]; human, regardless of the temperature
  binding to resting platelets: No binding
[2]; 22° C., mouse whole blood
  binding to activated murine platelets: binds
[2]; either 22° C. or 37° C.
  binding to resting mouse platelets: did not bind
[3]; 22° C., concentration-dependent
  fibrinogen binding to human activated platelets: significantly reduced
[3]; 32° C.
  fibrinogen binding to human activated platelets: inhibit the binding of fibrinogen
[3]; 37° C.
  fibrinogen binding to human activated platelets: not inhibited
[4]; 22° C.
  fibrinogen binding to activated mouse platelets: significant decrease
[4]; 32° C.
  fibrinogen binding to activated mouse platelets: inhibit the binding of fibrinogen
[4]; 37° C.
  fibrinogen binding to activated mouse platelets: did not affect
Human platelets [5]
  platelet activation: P-selectin expression: no effect
  platelet activation: binding of PAC-1: no effect
Human platelets [6]
  ADP-driven platelet aggregation: effective inhibition
[7]
  aggregation of activated human platelets (microscopy): inhibited aggregation
